Results as given in patent publication US7482008B1, “Human T cell reactive feline protein (TRFP) isolated from house dust and uses therefor” (Merck Patent GmbH, priority 1989, dated 2009).

B1: peptide ZYX: recombinant peptide: peptide Z, peptide Y and peptide X linked in this order (protein)
chain: MGHHHHHHLVPRGSFFAVANGNELLLDLSLTKVNATEPERKALPVVLENARILKNCVDAKMTEEDKEKRDVDLFLTGTPDEYVEQVAQYKALPV
B2: peptide XZY: recombinant peptide: peptide X, peptide Z and peptide Y linked in this order (protein)
chain: MGHHHHHHEFKRDVDLFLTGTPDEYVEQVAQYKALPVFFAVANGNELLLDLSLTKVNATEPERKALPVVLENARILKNCVDAKMTEEDKE
B3: peptide XYZ: recombinant peptide: peptide X, peptide Y and peptide Z linked in this order (protein)
chain: MGHHHHHHLVPRGSKRDVDLFLTGTPDEYVEQVAQYKALPVVLENARILKNCVDAKMTEEDKEFFAVANGNELLLDLSLTKVNATEPER
B4: recombinant chain 2: recombinant TRFP chain 2 expressed in E. coli (protein, UniProt P30440 18-109, looked up)
Major allergen I polypeptide …: VKMAETCPIFYDVFFAVANGNELLLDLSLTKVNATEPERTAMKKIQDCYVENGLISRVLDGLVMTTISSSKDCMGEAVQNTVEDLKLNTLGR
modifications: expressed in E. coli
notes: recombinant TRFP chain 2 expressed in E. coli
B5: peptide YZX: recombinant peptide: peptide Y linked to peptide Z linked to peptide X (SEQ ID NO: 103) (protein)
chain: MGHHHHHHEFLVPRGSKALPVVLENARILKNCVDAKMTEEDKEFFAVANGNELLLDLSLTKVNATEPERKRDVDLFLTGTPDEYVEQVAQYKALPV
B6: peptide ZXY: recombinant peptide: peptide Z, peptide X and peptide Y linked in this order (protein)
chain: MGHHHHHHEFFFAVANGNELLLDLSLTKVNATEPERKRDVDLFLTGTPDEYVEQVAQYKALPVVLENARILKNCVDAKMTEEDKE

Columns and labels:
IgE = IgE binding of dimeric recombinant chain 1 and alkali treated TRFP
T cell = T cell reactivity of dimeric recombinant chain 1 and alkali treated TRFP; type: cell-based
[1] = system: human IgE (cat allergic patient plasma); assay: Direct binding ELISA of human IgE to coated antigen; conditions: direct binding ELISA or similar protocol
Protocol: The basic format of these ELISA assays was a direct binding assay wherein the antigen was coated onto the wells of a 96 well microtitre dish and then antibodies in solution are added and assayed for the binding capacity. The protocol for these assays was as follows:
The peptides were conjugated to HSA (human serum albumin) by two different methods based on their chemical structure. […] Both conjugates were filter purified and dialyzed against PBS. In the ELISA assay, the unbound coating antigens were removed and the wells were blocked with 0.5% gelatin in PBS, 200 μl/well for 2 hours at room temperature. The antibody solution was a pool of plasma samples from 20 patients that were skin test positive for commercial cat extract which was serially diluted with PBS-Tween 20 (PBS with 0.05% nonionic detergent Tween-Sigma, St. Louis Mo.) and 100 μl/well was added and incubated overnight at 4° C. (plasma dilutions are tested in duplicate). […] The second antibody (biotinylated goat anti-Human IgE, 1:1000 Kirkegaard & Perry Laboratories Inc. Gaithersburg, Md.), was added at 100 μl/well for one hour at room temperature. This solution was removed and streptavidin-HRPO, 1:1000, (Southern Biotechnology Associates, Inc., Birmingham, Ala.) was then added at 100 μl/well for one hour at room temperature (all wells were washed three times with PBS-Tween between each incubation step). TMB Membrane Peroxidase Substrate system (Kirkegaard & Perry Laboratories) was freshly mixed, and added at 100 μl/well. The color was allowed to develop for 2-5 minutes. The reaction was stopped by the addition of […] of 1 M phosphoric acid. Plates are read on a Microplate EL 310 Autoreader (Biotek Instruments, Winooski, Vt.) with a 450 nm filter. The absorbance levels of duplicate wells were averaged.

B6CBAF1 mice = assay: Murine T cell response after immunization with peptide YZX, IL-2 production (CTLL-2); type: in vivo, mouse; conditions: mice immunized with 100 μg peptide YZX in CFA; label = antigen in culture
Protocol: 10 B6CBAF1 mice were immunized subcutaneously at the base of the tail and in the thigh region with 100 μg of peptide YZX in complete Freund's adjuvant. After 10 days, the inguinal, paraaortic, and popliteal nodes of the immunized mice were removed and pooled. The lymph node cells were suspended in cold RPMI 1640 with 1% fetal bovine serum (FBS) by passage through stainless steel mesh. The cells were washed 2 times with cold RPMI-1640 containing 1% FBS and maintained at 4° C.
The lymph node cells were plated at 4×10^6 cells/ml in RPMI 1640 with 10% FBS, 250 μg/ml penicillin G, 100 μg/ml streptomycin, and 5×10^−5 M 2-mercaptoethanol. […] After 24 hours, 50 μl of supernatant was removed from each culture and frozen overnight to eliminate live cell carryover. The supernatant was warmed to […] and washed. CTLL-2 indicator cells (ATCC # T1B 214) were added (5×10^3 cells/well). This indicator cell line requires IL-2 for continued growth. After 24 hours, H^3-thymidine (1 μCi/well) was added and the cells were further incubated for 4 hours. The plates were frozen and thawed, harvested on a Tomtec 96 well harvester (Tomtec, Orange, Conn.), and counted on a Betaplate beta counter (Pharmacia, Gaithersburg, Md.).

[2] = system: T cells from cat-allergic patients; assay: Secondary proliferation assay of T cells primed with TRFP, peptide YXZ or peptide YZX; type: cell-based, human
Protocol: The human cat allergic T cell response to peptides produced as above was examined. […] Peptide YZX was cleaved with thrombin as described in Example 25. Viable cells were then purified by Ficoll-Hypaque centrifugation and cultured for 2 additional weeks in RPMI-1640/5% AB serum containing 5 units recombinant human IL-2/ml and 5 units recombinant human IL-4/ml. The resting T cells were then tested in a secondary proliferation assay using a 96 well microtiter plate to assess T cell responses to various TRFP proteins or peptides (TRFP antigens). For assay, 2×10^4 resting T cells were cultured for 3 days at 37° C. in the presence of 2×10^4 autologous Epstein-Barr virus transformed B cells (25,000 Rads) as antigen presenting cells with various concentrations of antigen in 200 μl per well. Each well then received 1 μCi tritiated thymidine for 16 hours. The counts incorporated were collected onto glass fiber filters and processed for liquid scintillation counting. The stimulation indices for responses to each antigen were then calculated as the maximum CPM in response to antigen divided by the medium control CPM. A stimulation index of 2.5 was considered to be a positive T cell response. A summary of the results of 3 such experiments (patients 522, 519, and 386 is shown in FIG. 35a, FIG. 35b and FIG. 35c). As compared to the experiments shown in FIGS. 35a and 35b in the experiment shown in […], Fel-1.4 (chain 1, amino acid residues 6-17) was substituted for Fel-1.2 (chain 1, amino acid residues 1-17) and Fel-33.3 (chain 2, amino acid residues 26-40) was substituted for Fel-18 (chain 2, amino acid residues 23-48) in order to more closely resemble the constituent amino acids of peptides X and Z. In addition, in this experiment one peptide derived from the Y-Z junction of peptide YZX (amino acid residues 50-55 from chain 1 of TRFP and amino acid residues 14-19 from chain 2 of TRFP) and one peptide derived from the Z-X junction of peptide YZX (amino acid residues 34-39 of chain 2 of TRFP and amino acid residues 7-12 of chain 1 of TRFP) were synthesized and tested. These junction peptides were produced in order to determine whether these areas of peptide YZX produce a non-native epitope when formed in the peptide.

human IgE [3] = assay: SDS/PAGE Western immunoblot of human IgE binding, plasma from patient #417; conditions: patient #417 plasma
Protocol: Western immunoblot analysis of the peptides produced in above was performed. The concentration of all protein samples (e.g., TRFP, recombinant chain 1 of TRFP, recombinant chain 2 of TRFP, peptide XYZ, peptide XZY, peptide YXZ, peptide YZX, peptide ZXY and peptide ZYX) for gel electrophoresis was determined by the BCA method (Pierce Co.). All protein samples were loaded on the gel at 5 μg/lane except TRFP at 10 μg/lane. Protein separation was carried out on a 15% acrylamide gel, and transfer was performed by electroblotting at 1.5 Amps for 1.5 hours onto nitrocellulose paper (Schleicher and Schuell, 0.1 microns) in a Hoeffer apparatus according to the protocol of Towbin, H., T. Stachlin, and J. Gordon, PNAS 76:4350 (1979). Proteins were rinsed in blot solution (25 mM Tris-HCl 7.5, 0.171 M NaCl and 0.5 ml/liter Tween 20). The blot was then blocked for one hour in blocking solution (1% milk in blot solution). Plasma from patient #417, used as a primary antibody source, was diluted in blocking solution to 10% and preabsorbed for 1.5 hours with unused nitrocellulose (2 cm×15 cm). The prepared human plasma was then incubated overnight on an orbital shaker with the protein blot section of interest. Following the first antibody incubation the blot section was washed three times, each wash involved a fifteen minute incubation in blot solution. The second antibody, specific for human IgE (biotinylated goat anti-human IgE, KPL Inc.), was diluted 1:2500 in blot solution and the incubation proceeded for two hours. Excess second antibody was subsequently removed by three 15 minute incubations with blot solution. ^125I Iodinated streptavidin (Amersham) was diluted 1:2500 in blot solution and incubated with blots for 1 hour, at 2 μCi in a 50 ml incubation volume. Blot sections were then washed with blot solution until the detectable radioactivity in the waste solution decreased to background levels. The blot section was then wrapped in saran wrap and exposed to film overnight with a cronex intensifying screen at −80° C.

human IgE [4] = assay: ELISA of human IgE binding, plasma from patient #669; conditions: patient #669 plasma
Protocol: Corning assay plates (#25882-96) were coated with 10 μg/ml of each coating antigen (i.e., TRFP, chain 1 (recombinant chain 1 of TRFP), chain 2 (recombinant chain 2 of TRFP), peptide XYZ, peptide XZY, peptide YXZ, peptide YZX, peptide ZXY and peptide ZYX) listed in FIG. 34 at 50 μl/well and incubated overnight at 4° C. The coating antigens were removed and the wells were blocked with 0.5% gelatin in PBS, 200 μl/well for 2 hours at room temperature. Plasma from patient #669 was serially diluted with PBS-Tween 20 (PBS with 0.05% nonionic detergent Tween-20 Sigma, St. Louis Mo.) and 100 μl/well was added and incubated overnight at 4° C. (plasma dilutions are tested in duplicate). The second antibody (biotinylated goat anti-Human IgE, 1:1000, Kirkegaard & Perry Laboratories Inc. Gaithersburg, Md.), was added at 100 μl/well for one hour at room temperature. This solution was removed and streptavidin-HRPO, 1:10,000 (Southern Biotechnology Associates, Inc., Birmingham, Ala.) was then added at 100 μl/well for one hour at room temperature (all wells were washed three times with PBS-Tween between each incubation step). TMB Membrane Peroxidase Substrate system (Kirkegaard & Perry Laboratories) was freshly mixed, and added at 100 μl/well. The color was allowed to develop for 2-5 minutes. The reaction was stopped by the addition of 100 μl/well of 1M phosphoric acid. Plates were read on a Microplate EL 310 Autoreader (Biotek Instruments, Winooski, Vt.) with a 450 nm filter. The absorbance levels of duplicate wells were averaged.

[5] = patient 386, T cells primed with YZX

Molecule | T cell response of pooled lymph node cells (IL-2 production) (B6CBAF1 mice) | IgE binding, Western immunoblot (human IgE [3]) | IgE binding, ELISA (human IgE [4]) | other results
recombinant chain 1 of TRFP in a dimeric form: recombinant chain 1 of TRFP in a dimeric form | – | – | – | IgE binding (IgE): markedly reduced IgE binding; T cell reactivity (T cell): maintains T cell reactivity
peptide Z: amino acid residues 14-39 from chain 2 of TRFP (SEQ. ID. NO: 19) (FFAVANGNELLLDLSLTKVNATEPER) | significant response | – | – | specific IgE binding [1]: None of these peptides showed IgE binding; T cell response [2, 5]: respond at a similar level or better; T cell response ([2]; patient 519, cells primed with peptide YXZ): positive responses; T cell response ([2]; patient 522, T cells primed with YXZ): respond at a similar level or better
B1 | strong T cell responses | negative for IgE binding | – | –
B2 | strong T cell responses | negative for IgE binding | – | –
B3 | – | show IgE binding | slight signal | –
B4 | – | reduced compared to chain 1 | somewhat lower binding | –
B5 | respond well | negative for IgE binding | – | T cell response [2, 5]: respond at a similar level or better; T cell response ([2]; patient 386, T cells primed with native TRFP): positively respond
B6 | – | show IgE binding | clear reactivity with IgE | –
